How the values were obtained:
human cc-KDM4A = target: T1, human cc-KDM4A (Homo sapiens, UniProt O75164); experiment: FDH-assay enzyme kinetics of H3 peptide demethylation, truncated KDM4A; format: biochemical; conditions: for K m / k cat / k cat /K m / demethylation / catalytic activity (in words): FDH-assay; for K m: 50 mM HEPES (pH 7.5), 50 mM NaCl, 50 µM FeSO4, 500 µM α-KG, 500 µM ascorbate, 2 mM NAD, substrate 10–1000 µM, NADH fluorescence 15–30 minutes; for K m / k cat / k cat /K m: triplicate; for k cat / k cat /K m: pH 7.5; for k cat: NADH fluorescence; for k cat /K m: SD by propagation of errors, unit: min^−1 * µM^−1 * 10^3; for demethylation / catalytic activity (in words): compared to H3(1–24)K9me3 where a change is stated
T1 construct: Truncated constructs of KDM4A and KDM4C containing only the catalytic cores (cc-KDM4A/cc-KDM4C); made in house
T1 sequence (O75164 1-350 limits assumed): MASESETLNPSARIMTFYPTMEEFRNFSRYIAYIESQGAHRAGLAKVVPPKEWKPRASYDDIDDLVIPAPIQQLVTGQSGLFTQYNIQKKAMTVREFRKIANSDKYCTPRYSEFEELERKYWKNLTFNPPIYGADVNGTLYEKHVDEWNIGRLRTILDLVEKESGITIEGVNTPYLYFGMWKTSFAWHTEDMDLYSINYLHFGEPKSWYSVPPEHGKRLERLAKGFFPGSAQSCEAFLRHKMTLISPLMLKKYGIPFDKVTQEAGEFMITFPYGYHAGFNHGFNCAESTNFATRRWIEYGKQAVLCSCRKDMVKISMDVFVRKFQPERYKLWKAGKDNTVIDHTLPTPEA
Description: (§1) The enzyme kinetics were measured using a Formaldehyde DeHydrogenase Assay (FDH-Assay) and the demethylation of substrates was confirmed when possible by MALDI-TOF-MS, see File S1 for details. The test solution contained 50 mM HEPES (pH 7.5), 50 mM NaCl, 50 µM FeSO4, 500 µM α-KG, 500 µM ascorbate, 2 mM NAD, approximately 0.05 unit of FDH and e.g. 4.88 µM KDM4C (enzyme concentration varied between batches). The reference solution was comprised of the same except substrate. The assay was initiated by adding various concentrations of H3 peptide substrates e.g. H3(1–24)K9me3 (10–1000 µM) and the increase in NADH fluorescence was measured over 15–30 minutes in 30 second intervals. Data analysis and kinetic values were obtained using programs Excel and GraphPad Prism® 5.0. For details, see File S1.
(§2) The standard deviations for k cat/K m were calculated using the statistic law of propagation of errors. Standard errors for Michaelis-Menten Kinetics were automatically given in GraphPad Prism®, with a 95% confidence interval. All enzyme kinetic curves were done in triplicate unless otherwise stated.
(§3) Test for activity of enzyme using the fluorescence FDH assay, determination of Vmax and Km of enzymes with substrate, expression and purification of cc-KDM4A and cc-KDM4C software and parameters for the FDH coupled assay, see Lohse et al.^21
as §2, with “kcat/ Km” for “k cat/K m”, “95 %” for “95%”

human cc-KDM4C = target: T2, human cc-KDM4C (Homo sapiens, UniProt Q9H3R0); experiment: FDH-assay enzyme kinetics of H3 peptide demethylation, truncated KDM4C; format: biochemical; conditions: for K m / demethylation / catalytic activity (in words) / k cat / k cat /K m: FDH-assay; for K m: 50 mM HEPES (pH 7.5), 50 mM NaCl, 50 µM FeSO4, 500 µM α-KG, 500 µM ascorbate, 2 mM NAD, substrate 10–1000 µM, e.g. 4.88 µM KDM4C, NADH fluorescence 15–30 minutes; for K m / k cat: triplicate; for demethylation / catalytic activity (in words): compared to H3(1–24)K9me3 where a change is stated; for k cat: pH 7.5, NADH fluorescence; for k cat /K m: pH 7.5, triplicate, SD by propagation of errors, unit: (min^−1 * µM^−1) * 10^3; for fold decrease in catalytic activity (k cat/K m): compared to H3(1–24)K9me3
T2 construct: Truncated constructs of KDM4A and KDM4C containing only the catalytic cores (cc-KDM4A/cc-KDM4C); made in house
T2 sequence (Q9H3R0 1-349 limits assumed): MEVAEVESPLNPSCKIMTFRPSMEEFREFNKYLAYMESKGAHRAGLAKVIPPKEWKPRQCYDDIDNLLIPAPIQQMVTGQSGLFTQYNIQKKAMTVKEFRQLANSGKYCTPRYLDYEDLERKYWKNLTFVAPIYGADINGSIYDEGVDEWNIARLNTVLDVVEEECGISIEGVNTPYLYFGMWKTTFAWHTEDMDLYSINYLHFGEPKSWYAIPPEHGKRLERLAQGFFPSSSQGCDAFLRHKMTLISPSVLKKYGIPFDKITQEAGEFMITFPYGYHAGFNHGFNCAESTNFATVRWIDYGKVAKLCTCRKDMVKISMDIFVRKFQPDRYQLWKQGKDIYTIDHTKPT
Description: as §1, §2, §3
as §2, with “kcat/ Km” for “k cat/K m”, “95 %” for “95%”

PHF8 = PHF8 with PHD domain; ref [5]; cited from earlier work
Source text: The enzyme kinetics of FL-KDM4A and ...

Row | fold difference in catalytic activity between cc-KDM4A and cc-KDM4C (human cc-KDM4A; cc-KDM4A versus cc-KDM4C) [fold] | K m (human cc-KDM4A; cc-KDM4A) | k cat (human cc-KDM4A; cc-KDM4A) | k cat /K m (human cc-KDM4A; cc-KDM4A) | fold increase in k cat/K m (human cc-KDM4A; cc-KDM4A, compared to H3(1–24)K9me3) [fold] | K m (human cc-KDM4C) | demethylation / catalytic activity (in words) (human cc-KDM4C) | k cat (human cc-KDM4C) | k cat /K m (human cc-KDM4C) | fold decrease in catalytic activity (k cat/K m) (human cc-KDM4C) [fold] | Substance | demethylation / catalytic activity (in words) (human cc-KDM4A; cc-KDM4A) | change of K m (PHF8) | change of k cat (PHF8)
1 | 10 | 33±4 | 1.0±0.03 | 30.3±3.8 | 3 | 35.2±20 | a decrease | 0.1±0.01 | 2.8±0.2 | 3 | H3(1–24)K9me3K14(ac): histone peptide containing H3K9me3 in combination with acetylation of K14 | an increase in the enzymatic catalytic efficiency |  | 
2 |  | 162±15 | 1.2±0.04 | 7.4±0.7 |  | 207±50 | did not prevent demethylation | 0.38±0.04 | 1.8±0.1 | 5 | H3(1–24)T3(ph)K9me3: phosphorylation of threonine 3 in combination with lysine 9 trimethylation | did not prevent demethylation |  | 
3 |  |  |  |  |  |  |  |  |  |  | H3(1–24)K4me3-K9me2: H3(1–24) substrate with trimethylated K4 and dimethylated K9 |  | a decrease in K m | an increase in k cat
